Data on seven molecules can be found in paper PMC6461199.

B1: RNA36 (ssRNA)
RNA: GUGUGAAUGAAUGUGUGAAUGAAUGUGUGAAUGAAU
B2: NegRNA12S2 (ssRNA)
RNA: CUCACAUUAUCA
B3: RNA12S1 (ssRNA)
RNA: UAGAGUAUGAUG
B4: RNA12S2 (ssRNA)
RNA: AAGUGUGGUAUA
B5: NegRNA12 (ssRNA)
RNA: AUUCAUUCACAC
B6: NegRNA12S1 (ssRNA)
RNA: UUAUACCUACCA
B7: RNA12 (ssRNA)
RNA: GUGUGAAUGAAU

What is called Kd is the concentration at which binding is half-saturated.

In the data set the target is TDP-43 N-RRM1-2 (UniProt Q13148 1-269). The data set is described as follows: BLI. In general terms: Biolayer interferometry detects binding as a change in optical thickness at a sensor tip.
TDP-43 N-RRM1-2, sequence (Q13148 1-269): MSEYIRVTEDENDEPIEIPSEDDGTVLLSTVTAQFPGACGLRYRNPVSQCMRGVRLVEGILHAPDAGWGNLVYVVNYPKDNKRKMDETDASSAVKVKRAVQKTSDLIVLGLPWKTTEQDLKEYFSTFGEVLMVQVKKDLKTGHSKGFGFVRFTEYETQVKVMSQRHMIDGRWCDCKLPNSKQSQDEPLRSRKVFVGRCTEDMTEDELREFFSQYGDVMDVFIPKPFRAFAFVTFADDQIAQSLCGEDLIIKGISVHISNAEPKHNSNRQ
For B1, binding was characterised by a dissociation constant (Kd) of 22 nM. Then B2, with 1340 nM; and B3, with 60 nM; and B4, with 75 nM. The molecule B5 returned a Kd of 1900 nM. In turn, B6 had a Kd of 1650 nM.

In the case of B7, binding was put at a Kd of 6.3 nM.
